Values of other authors, collected in article PMC6558399.

Molecular target: Galectin-1 (Homo sapiens) (UniProt P09382)

For Galectin-1 (from UniProt P09382), the Kd is listed as 7 µM.
